Values of other authors as cited in patent US20260263505A1, “Uses of Compositions Comprising a Prebiotic Component” (Mead Johnson Nutrition Company, priority 2021, published 2026).

Tested on: Rats
Details: after four weeks of diet, acute inescapable stressor

B1: lactoferrin: multifunctional iron-binding glycoprotein naturally present in milk; test diet of Mika et al. (protein, UniProt P24627 20-708, looked up)
Lactotransferrin: APRKNVRWCTISQPEWFKCRRWQWRMKKLGAPSITCVRRAFALECIRAIAEKKADAVTLDGGMVFEAGRDPYKLRPVAAEIYGTKESPQTHYYAVAVVKKGSNFQLDQLQGRKSCHTGLGRSAGWIIPMGILRPYLSWTESLEPLQGAVAKFFSASCVPCIDRQAYPNLCQLCKGEGENQCACSSREPYFGYSGAFKCLQDGAGDVAFVKETTVFENLPEKADRDQYELLCLNNSRAPVDAFKECHLAQVPSHAVVARSVDGKEDLIWKLLSKAQEKFGKNKSRSFQLFGSPPGQRDLLFKDSALGFLRIPSKVDSALYLGSRYLTTLKNLRETAEEVKARYTRVVWCAVGPEEQKKCQQWSQQSGQNVTCATASTTDDCIVLVLKGEADALNLDGGYIYTAGKCGLVPVLAENRKSSKHSSLDCVLRPTEGYLAVAVVKKANEGLTWNSLKDKKSCHTAVDRTAGWNIPMGLIVNQTGSCAFDEFFSQSCAPGADPKSRLCALCAGDDQGLDKCVPNSKEKYYGYTGAFRCLAEDVGDVAFVKNDTVWENTNGESTADWAKNLNREDFRLLCLDGTRKPVTEAQSCHLAVAPNHAVVSRSDRAAHVKQVLLHQQALFGKNGKNCPDKFCLFKSETKNLLFNDNTECLAKLGGRPTYEEYLGTEYVTAIANLKKCSTSPLLEACAFLTR
  stress-evoked cfos mRNA in the dorsal raphe nucleus: reduce
